# Reference: IntAct's records for PubMed 24240280
# Key:
# sv2c_human SV2C [1] = target: T1, sv2c_human SV2C (UniProt Q496J9)
# T1 sequence: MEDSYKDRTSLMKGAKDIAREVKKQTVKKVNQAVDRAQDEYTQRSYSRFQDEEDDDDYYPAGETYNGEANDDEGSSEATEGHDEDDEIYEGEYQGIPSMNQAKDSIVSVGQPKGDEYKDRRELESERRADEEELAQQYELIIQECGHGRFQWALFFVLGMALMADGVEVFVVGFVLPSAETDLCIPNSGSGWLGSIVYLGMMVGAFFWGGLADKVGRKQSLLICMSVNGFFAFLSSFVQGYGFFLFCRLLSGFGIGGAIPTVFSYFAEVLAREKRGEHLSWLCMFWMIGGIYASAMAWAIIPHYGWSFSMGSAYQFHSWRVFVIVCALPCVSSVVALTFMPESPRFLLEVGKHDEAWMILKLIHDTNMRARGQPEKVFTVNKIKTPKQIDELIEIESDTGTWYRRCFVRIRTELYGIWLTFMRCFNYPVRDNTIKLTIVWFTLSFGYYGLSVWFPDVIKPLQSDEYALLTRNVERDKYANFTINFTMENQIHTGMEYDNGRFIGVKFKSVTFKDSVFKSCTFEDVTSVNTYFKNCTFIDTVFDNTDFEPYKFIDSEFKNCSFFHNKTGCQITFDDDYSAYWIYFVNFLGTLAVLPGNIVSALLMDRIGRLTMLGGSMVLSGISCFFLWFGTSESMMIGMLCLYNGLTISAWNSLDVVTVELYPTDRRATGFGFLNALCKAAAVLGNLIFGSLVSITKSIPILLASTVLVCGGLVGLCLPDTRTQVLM
# sv2c_human SV2C [2] = target: T1, sv2c_human SV2C; remark: listed apart in the source
Substance,effect of a mutation on the interaction (sv2c_human SV2C [1]),effect of a mutation on the interaction (sv2c_human SV2C [2])
Botulinum neurotoxin type A (Clostridium botulinum) (from UniProt P0DPI0) R1156E,decreasing interaction strength,
Botulinum neurotoxin type A (Clostridium botulinum) (from UniProt P0DPI0) R1294A,decreasing interaction strength,
Botulinum neurotoxin type A (Clostridium botulinum) (from UniProt P0DPI0) T1145A;T1146A,disrupting interaction strength,decreasing interaction strength
